From patent US20240327514A1 (Janssen / Centocor, published 2024)

Biological target: T1, human CD123 (human, UniProt P26951 19-378)
T1 construct: whole, on cells; Target presented on CD123+ AML cell lines; also called CD123 on CD123+ AML cells
Experiment: flow cytometry on tumor cell lines, detection with mouse anti-human IgG4
Experimental: All tumor cells were centrifuged, washed twice with Dulbecco's phosphate-buffered saline (DPBS) and 1×10^4 cells were added to the center of each well of a 96 well U bottom plate along with fragment crystallizable (Fc) block (human IgG1 fragment) which was added at 2 mg/mL for 10 minutes. Serially diluted bispecific antibodies were added to the appropriate wells. Plates were incubated in the dark at 37° C. with 5% CO₂ for 4 hours. The cells were then washed with DPBS and binding of the bispecific antibody was detected by staining with mouse anti-human IgG4 (Southern Biotech, clone HP6025, catalog #9200-09) and LIVE/DEAD (L/D; Invitrogen, catalog #L34976) for 30 minutes. Finally, cells were washed, resuspended in stain buffer, and analyzed on the FACSCanto II flow cytometer (BD Biosciences). Geometric mean fluorescence intensity (gMFI) was plotted in Prism version 7 (GraphPad). The X axis was log transformed and a 4 parameter non-linear curve fit was applied.

T1 sequence (P26951 19-378): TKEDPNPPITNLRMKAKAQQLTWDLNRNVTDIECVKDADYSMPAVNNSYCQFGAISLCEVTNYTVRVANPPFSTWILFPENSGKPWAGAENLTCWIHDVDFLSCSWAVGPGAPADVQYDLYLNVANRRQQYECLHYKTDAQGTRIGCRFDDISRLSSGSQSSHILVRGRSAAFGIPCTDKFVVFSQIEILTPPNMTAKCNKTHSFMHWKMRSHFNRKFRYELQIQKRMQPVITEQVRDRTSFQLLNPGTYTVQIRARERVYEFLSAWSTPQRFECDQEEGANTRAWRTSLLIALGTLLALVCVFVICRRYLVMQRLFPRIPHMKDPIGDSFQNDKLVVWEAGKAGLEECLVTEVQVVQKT

B1: CD123×CD3 bispecific antibody (bispecific antibody, human IgG4 S228P, kappa, lambda, F234A L235A)
heavy 1: not shown
light 1: EIVLTQSPGTLSLSPGERATLSCRASQSVSSSYLAWYQQKPGQAPRLLIYGASSRATGIPDRFSGSGSGTDFTLTISRLEPEDFAVYYCQQDYGFPWTFGQGTKVEIKRTVAAPSVFIFPPSDEQLKSGTASVVCLLNNFYPREAKVQWKVDNALQSGNSQESVTEQDSKDSTYSLSSTLTLSKADYEKHKVYACEVTHQGLSSPVTKSFNRGEC
heavy 2: EVQLVESGGGLVQPGGSLKLSCAASGFTFNTYAMNWVRQASGKGLEWVGRIRSKYNAYATYYAASVKGRFTISRDDSKNTAYLQMNSLKTEDTAVYYCTRHGNFGNSYVSWFAYWGQGTLVTVSSASTKGPSVFPLAPCSRSTSESTAALGCLVKDYFPEPVTVSWNSGALTSGVHTFPAVLQSSGLYSLSSVVTVPSSSLGTKTYTCNVDHKPSNTKVDKRVESKYGPPCPPCPAPEAAGGPSVFLFPPKPKDTLMISRTPEVTCVVVDVSQEDPEVQFNWYVDGVEVHNAKTKPREEQFNSTYRVVSVLTVLHQDWLNGKEYKCKVSNKGLPSSIEKTISKAKGQPREPQVYTLPPSQEEMTKNQVSLTCLVKGFYPSDIAVEWESNGQPENNYKTTPPVLDSDGSFLLYSKLTVDKSRWQEGNVFSCSVMHEALHNHYTQKSLSLSLGK
light 2: QAVVTQEPSLTVSPGGTVTLTCRSSTGAVTTSNYANWVQQKPGQAPRGLIGGTNKRAPGTPARFSGSLLGGKAALTLSGAQPEDEAEYYCALWYSNLWVFGGGTKLTVLGQPKAAPSVTLFPPSSEELQANKATLVCLISDFYPGAVTVAWKADSSPVKAGVETTTPSKQSNNKYAASSYLSLTPEQWKSHRSYSCQVTHEGSTVEKTVAPTECS
notes: also called CD123xCD3 DuoBody antibody
binding result: binds
